{"source": "paper PMC8237704", "molecular_target": "GluN1 NMDA receptor subunit, isoform GluN1-2a, with a fluorescent protein on the C-terminus (GluN1-GFP; GluN1-mCherry)", "experiment": "FRET or BRET"}
{"substance": "GluN1 NMDA receptor subunit, isoform GluN1-2a, with a fluorescent protein on the C-terminus (GluN1-GFP; GluN1-mCherry)", "values": [{"measurement": "FRET efficiency", "result": 5.8, "unit": "%"}]}
